Measured values as given in patent publication US20030220245A1.
No end group written: not given here.

T1: GCY-DLys-N-DArg-DCG (plasmin stable peptide)
T1 sequence: GCYKNRDCG

T2: GCYKNRDCG (plasmin sensitive peptide)
T2 sequence: GCYKNRDCG


Columns and labels:
[1] = test system: T1, GCY-DLys-N-DArg-DCG (plasmin stable peptide)
[2] = test system: T2, GCYKNRDCG (plasmin sensitive peptide)
[3] = target: receptors that recognize the sequence GRGDSPG; assay: cell-based or functional assay

Chain of plasmin (P00747 20-580): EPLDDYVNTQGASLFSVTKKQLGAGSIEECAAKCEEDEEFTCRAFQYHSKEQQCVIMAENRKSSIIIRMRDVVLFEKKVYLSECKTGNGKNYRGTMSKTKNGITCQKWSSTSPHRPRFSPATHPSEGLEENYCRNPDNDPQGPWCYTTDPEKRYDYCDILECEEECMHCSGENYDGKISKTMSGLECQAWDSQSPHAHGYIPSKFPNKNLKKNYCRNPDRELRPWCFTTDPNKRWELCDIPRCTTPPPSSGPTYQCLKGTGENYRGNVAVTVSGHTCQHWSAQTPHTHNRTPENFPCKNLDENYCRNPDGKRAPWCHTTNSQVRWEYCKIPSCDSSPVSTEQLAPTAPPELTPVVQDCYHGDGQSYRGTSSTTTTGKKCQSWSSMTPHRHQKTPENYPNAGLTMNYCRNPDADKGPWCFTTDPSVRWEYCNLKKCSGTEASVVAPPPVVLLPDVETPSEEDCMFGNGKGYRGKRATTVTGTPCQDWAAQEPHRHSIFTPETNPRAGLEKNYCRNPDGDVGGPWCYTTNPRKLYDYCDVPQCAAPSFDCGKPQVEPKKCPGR
Chain of plasmin (P00747 581-810): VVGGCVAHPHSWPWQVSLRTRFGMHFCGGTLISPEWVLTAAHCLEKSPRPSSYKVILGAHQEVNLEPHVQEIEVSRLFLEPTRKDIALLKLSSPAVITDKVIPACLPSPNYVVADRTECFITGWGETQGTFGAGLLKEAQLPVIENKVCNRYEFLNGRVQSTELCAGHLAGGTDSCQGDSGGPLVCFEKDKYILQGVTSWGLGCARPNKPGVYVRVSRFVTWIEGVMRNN

| adhesion and spreading of human foreskin fibroblasts on conjugate addition PEG gels carrying the peptide on one of every 12 acrylates, 6 hours after seeding [3] | Molecule | degradation of PEG-triacrylate/peptide gel by 0.2 units of plasmin in 200 microliters, 37 C [1] | degradation of PEG-triacrylate/peptide gel by 0.2 units of plasmin in 200 microliters, 37 C [2] | peptide degradation by plasmin, analytical C18 HPLC, plasmin at 1/1000 the peptide concentration, 37 C [2] |
| --- | --- | --- | --- | --- |
| – | plasmin | The DLys, DArg configuration gel has not been shown to degrade by plasminolysis. | The L-Lys, L-Arg configuration of the peptide was readily degraded by the enzyme. In one case, after 6 hours no gel remained. | most of the GCYKNRDCG peptide was degraded in approximately one hour at 37 °C |
| 50% | GC(PEG acrylate)GYGRGDSPG [… (RGD-containing adhesion peptide)] | – | – | – |
